Source: the DeepSol protein solubility set

experiment: soluble on expression in E. coli; label from the status in PepcDB or PDB records

Sequence | soluble on expression in E. coli
MTAPRDVRVRTLSLLLPEPGRKGRLAAISAAVCHRRDMATYRYLDKDRNVLEEQDFGTVQDAEEHRLSVLGAEIIEEVEDSGTPES | not soluble
MGSDKIHHHHHHMMFQEQIDLLQQKGLYRSLKSVGYIDRQYIEVENKRCTNYTSNDYLGLGQIAFDKDDFERFMRKYSYHLSSSRLISGSSTAYEEIETMLAGWLGYSACTILNSGYDANLALFNIFKNTNCVVFSDQENHASIIDGIKLSGLEKVIYKHLDIADLEKRLEKYPNQNIPKIIISDSVFSTNGDVVDIGQLVSLKHKYNATLILDVSHSFGIENYSNYQGVDILTSSLSKACGAYGGVILSSNDVKDMLINHGRPLIYSSSLPIYNLYFIKRNIEKLINADDRRTKLNSLSKYFNQKLKALNVNYNSSNSPIKFIEFDDIEAAENIHQTLLKHHVFTSYLRYPTVTKPMLRISLSYFHTEQDIDRLFEILHQED | not soluble
MAGRLREMRCELSFLKNADGSACFSQGATCIWASCSGPGDVHASKASDEAMTLDISYRANCGDNKFNVLNNIIHSTLSNAINLELFPHTTISVTVHGIQDDGSMGAVAINGACFALLDNGMPFETVFCGVLIVRVKDELIIDPTAKQEAASTGRVLFSVCKGSDGHPEVCAMDAIGHWDFIQLEAAWSLAQPSASAIFDFYKTVMKRKLSVDEQ | not soluble
MVRPEDFNSLELDNSLTDGETVHEMMAHKAGLTYNDFNILPGFINFGVHDVSLETNITKDLKIKAPLVSSPMDTVTESGMAIVMALYGGIGIIHGNFPKPEDQAAEVLKVKRFKQGYVMQPHCLSRDSTAFDMIQIKKKYGYTGAPVTEDGRVGSKLIGMVTSRDFDFITMDVAGQKGTPISDTNDVTPTTPITRIMVSVDQLHLGHINDAPELSQKKLKEHRLGKLPIVNDNGELCALLCRSDLLKARDYPMASYDSKGQLLCGAAVNTRGESQYTVDRVVEAGVDVLIIDSSNGSSTYQISMLRYIKEKHPHVQVIAGNVVTRAQAKLLIDQGADGLRIGMGSGSICITQDVMAVGRAQGTAVYDVARYANQRGIPIVADGGIRDVGYITKAISLGASAVMMGGLLAATTEAPGEYFWGPGGVRVKKYRGMGSLDAMEAHASSQDRYFTAHVFFSILSYF | not soluble
MLGSIACSMEFEDFDLYSYFYGLVKQIPEGYVTTYGDLAQALGDPIAARAVGYMLSINEDPDTIPCYRVVLHDGTVGNYTHPLGPMEKVRRLRADGIPVVDGMIENFDRYRFRDFKTDQPLRKMQQYQEYIARKYSESGAGEFRTVAAFDVSYEERRAFASMVIQDGSTIEAYVISDGINFPYIPGYLAFREFRFIKKLYRKADLLLIDGNGILHPRFAGLATHAGVLLDRASIGVAKHLTRSTRHQDIIYMQDRPVGVMIRKNMIVSPGNFIDVNGSADTVRKMWNDRYPWPLKLAHQLSTRHAETGGRVSEYSIESAHELHLEHHHHHH | soluble
MGSDKIHHHHHHMWPDRHAKHLTLGRSRQQMLEFENVSKSFWTGTQRKVILDRVSFRVELGKSMGILAPNGTGKSTLINMMAGLEKPDEGVIRRGCNISFPLGFMGGVVGRLSAMENSRYIARLYGMDPDYIEAYCRWLCGLGEYFDQPLGTYSSGMRARFSFALMLALDFDMYLIDEGMPASTDVEFNKKAGAILEERLRTTTIVIVSHQPATLEQFARQAAVLMDGQLHVFDTLEEAKQLYDYQTQG | not soluble
MSLFILKNVTAVQLEPTLVLEGVDIAIEGSLIKAVGPNLRALYPQANYREMGGKLVMPGIVCAHNHFYSGLSRGIMANIAPCPDFISTLKNLWWRLDRALDEESLYYSGLICSLEAIKSGCSAVIDHHASPNFIKGSLNVLRKGFVEAGLRGMTCFETTDRNGGLAELQAGVEENILFAQAIDAAKAKGREPYLVEAHIGAHAPFTVPDEGLAMLREAVQVTGRGLHIHVAEDRYDMAHGHHHHGKEPIARLDEFDLVDSKTLIAHGIYLSPADIELLNSRDAFLVHNARSNMNNHVGYNMHLPEYRNLALGTDGIGSDMLEELKFAYFKHKDAGGALWPDSFARFLWNGNTLLERNFGAKFGRLEPGYKADLTICDYAAPTPLAPRNLGGHLAFGMGSSSVNSVMVEGRMVYQDREFAFDVEPIYQQASKVASRLWQRMDQLAEGHHHHHH | soluble
MSLFIDKQTVERHFSKSAHLYDGVNHVQRKMAHRLVQLLDEKRRDAKDEPRAILDIGCGTGWLTRECLKSFPQATIDAVDLSKQMLEVAEKNVSSHPNVQFIQGDIEKMVREKPSAKTYDVIVANAVFQWLDKPTETVAQLRSWLKPNGLLLFSTFGPDTFYELHDSFQLAAKQLGIIDERRGLDYLSKTEWKRTLDGLFAELTIHEEKAIESYATVEQFLHTVKKMGATYSQSSRPLSKRYYQLMKEIYEQRYRTEDSIPATYDCLYVLCQAEGHHHHHH | soluble
MASAEVVSKLEAAFAKLQNASDCHSLLKKYLTKEVFDQLKGKQTKMGATLMDVIQSGVENLDSGIGVYAPDAESYTLFAALLDPIIEDYHKGFKPSDKQPPKDSGDLNTFIDVDPDKKYVISTRVRCGRSLEGYPFNPCLKKQQYEEMESRVKGQLESMSGELRGKYYPLTGMTKETQKQLIDDHFLFKEGDRFLQAAHACKFWPTGRGIYHNDAKTFLVWVNEEDHLRIISMQKGGNLKEVFGRLVTAVGVIEEKVKFSRDDRLGFLTFCPTNLGTTIRASVHIKLPKLGADRKKLEEVAAKYNLQVRGTAGEHSDSPDGVYDISNKRRLGLSEYEAVKEMQDGILELIKAEESAR | soluble
MGSDKIHHHHHHMSYYLRSASLTNYVEVARAVGLDPHQFLRAAKISRDVLLDPDIRIPAKKVGRLLDDSARAAHVDDFGLRMAELRQVSNLGPLAFVVREQPTLRRALESMVRYMGVQNEALAMRMEESEGLLMIRLHILNDQPGTLRQATDLAVGVVYRLLSVCLGASWRPRSICFTHAAPASQATFQRVFGMPCVFNQDFDGIVCVAADLEAPLPSYDPVMAHQVKRYLGTLLAQANTTLPDKVRELVHVLLPSGMCSVDRVAQHLGVDRRTVHRRLAQENTSYSDIVNAARASLVVRYIDNRERPLSEVATLLGFSSLSAFSRWFGGQFGCSVSKWRLQHEGQGRNTA | not soluble
QNKNSVELDGGAIFKNDKLIDKMDKSETEAYNFMIGKVSSGSMEVLNPETNRDFISLWILNSKTTTKGKFYGGKFHVKKIVNVKVAFLESQSPITYNKYMQKQIEQNAEKNIINNCNKIFNKYKEKNEDIFNVRDVYENIYKKGSPDIIKNTVIDIEPHVQIERSGKASTF | not soluble
FRELTEREEAVRESHQRISTILESITDAFFSLDHSWRFTYLNGEAERLLGRTRDDLLGKSIWEEFAAAVGTRFDVEYRRAVASGTTATFEEYYPPLACWFEVHAYPSRDGLSVFFQDIT | not soluble
AEPVKVGSKIDTEGALLGNMIQQVLESHGVKTINKIQLGTTPVVRGAIVAGELDIYPEYTGNGAFFFKDENDPAWKNAQQGYEKVKRLDQEKHQLVWLTPAPANNTWTIAVRQDLAEKNKLTSLADLSRYLKQGGEFKLAASAEFIERPDALPAFEKAYGFNLNQNQLLSLAGGDTAVTIKAAAQQTSGVNAAMAYGTDGPVAALGLQTLSDPQGVQPIYAPTPVVREAVLKAYPQIADWLQPVFASLDEKTLQQLNARIAVEGQDAKRVAADYLQQKGLLK | not soluble
MAHHHHHHMQRNWVLLPQTVRAGDAPKSSAVRTPTRPLPYVCLKSNDGMEFVLPEVAARQSKMLAMLLDAVYSLPERGGFAEPTNARGEQHTTVHASNNIGTMPCIPLEVLSGRILELVCRYLVQRSTSDVNSTDEFALLGELNPTSSSDQDIVLGLLMASDYLDC | soluble
RDIAQRITGATLRAPPCHEEVREAIRDAVGRTLVSNRKVGVAVSGGLDSTILCSELDSLGITDLDLISIQALGSQDGITDLSALELKGEAWKSWRLTASRFDPATYWRDLRRAIAILGEPTQMTSAPLYLGLAEKAAEAGVVVLLLGEGADELFCGYRSYLPMLSGWSLRDFLFRPLERAVCQRLFSGEIQARCAAALDVFTRALPEGDQWTQLRAAEMSHNLEPLLLRADHTLMRCSIEGRTPFLHGDVADLAFSLPIDSLLSPNQTKVFLRQAYFRDLPAHFSTEIKKPFRAPVATWFVGPLKAWLTEEFSRQEAVFACLGIEPGGLEHVLTKTAQGHARMAKVAFCLLTLGFWIDWL | not soluble
MFYFRNLDGYTFFSFMKQKPRRNLFIGVPPLEGTCTKEVVHEAIKEILFYSYC | not soluble
MVTREEFVARFGGVFEHSPFIAERAYDAGGAGLELTAKAVHGALCAQFRVASEAERLGVLRAHPDLAGKLAIAGELTADSRNEQAGAGLDRLSPQEHARFTQLNSAYTEKFGFPFIIAVKGLNRHDILSAFDTRIDNNAAQEFATATGQVEKIAWLRLASMLPEGLEHHHHHH | soluble
MNVMMQKVHGSENDFFLLDETQFERSLTAEEIEQLRIQLCSRETGLLAGADGLLLVGEGTHGTSNARMRVINSDGSEASMCGNGLRTVARYLAEKNQEKSFTVETMFADLKVRQAPNLAEEVATYQVEISPVSFEAVTIPMHLGVQTLIDEIVPALSNTIRFTAVAVPNPHLVAFVDHETLNGPEFERIATYVNNENPYFPEGINVSFVEILGKNQLFVRTYERGVGFTSACGTAMCASSLLYTLLKDGVFYEEITVKNTGGMVKTVVHETSDGSYWMELIGNATITHLIEGSLTDLLNGAFEKITITETNEQKHYQEFLQTLSQK | not soluble
MGSDKIHHHHHHMPAKIIDKIIEEIDKLPSPNVVVQRIIAVCSKPDASSTEVANTLMMDASLSARVLKLANSAYYGVPRKITTLSEAVMILGFKTVRNLALSVFTYDMVFKNSSSGIDREKLWEHFIASAIASETVAETMGYPLKEEIFIAGLLHDLGKVVYDLLFSDILETEAKIAQKTKKNLIDIEEELGIPPHSEVGAKLLRKWNFPDLLVLSAEFHHNVEGNPNELFVNQVSMVHIGDVIANLMMKGASLSWGDPKLSPFALNVLKVKPKTFLRILDKSKEKYNKAQEFLQID | not soluble
VKMIFIFIDGFGIGKEDASVNPLANPELPNINYILNKAGAIPTDACLDVPGLPQSATGQTTIFTGQNASKVLSRHLHGQPTITLKKMIIENNLFKELIKRGFSVTNSNVYRTPYIEKIKDPKERKYRPSVTTVMTLSCGLNLRTVEEYITGDGVYHDIIGEILKNEGYVEELITPREAAQRLYSLSRKYDFTLFEYFVTDILGHKMEMEEAVEKLKILDAFLGELLNLYNEDEDIIFITSDHGNIEDLTVNTHTFNKVPTVILGKIPENVEIEINSLTDIMPTILKIFDAKGEL | soluble
GHMIMANWQSIDELQDIASDLPRFIHALDELSRRLGLNITPLTADHISLRCHQNATAERWRRGFEQCGELLSENMINGRPICLFKLHEPVQVAHWQFSIVELPWPGEKRYPHEGWEHIEIVLPGDPETLNARALALLSDEGLSLPGISVKTSSPKGEHERLPNPTLAVTDGKTTIKFHPWSIEEIVASEQSA | soluble
MGSDKIHHHHHHEEDNTELSEEDRVAEMFREAGFKVEKLSSKPVNPPMTEKEASLFLAAYKNRERSGSIQIPSENIELKPDGHLVVKVKCNSEKKNFSRTRTVYKEEFDFTHWATYTVRDIEIECWQDIAGYWKSDNVNCTFTTRDPEYICGFPDINPNTGYSKGSLYFSINITVSRYSGWQIYSVDENYDYTLMLTWLPVAQEWNASLSWHETFW | not soluble
MSLEKSSRINGGKMNREEVKDSVLLGDSLEIMRRIDDCIYDLIFLDPPYYLQMTPKRLKRWNNRSVPQTVREYWDAFPSFEAYDSFISSVLKEAKRLMSDTSTIWAIGTYHNIFRIGKIMQDMGFWILNDVVWIKTNPMPNWLGVRFTNSTETLIWATKGKEQKNYTYNRNLAKEFGLGKTANNVWVMKTSRGNERVRDENRKSVHPAQKPLELMKRIILSSTKEGDLILDPFAGVGTTGVAASMLGRNFTLIEKDPVYYRAMLSRFSRFGIRYTEKIEGHHHHHH | not soluble
